Results from patent US20160058829A1, “ANTI-FIBROTIC PEPTIDES AND THEIR USE IN METHODS FOR TREATING DISEASES AND DISORDERS CHARACTERIZED BY FIBROSIS” (Thrasos Innovation, Inc., priority 2011, published 2016).
Entries after “also recorded” stand apart in the source; their conditions may differ. Where two headings read alike, the source gives them in different places. Positions of bridges follow the written chain, without caps; N, C: chain ends.

T1: ALK2 (Homo sapiens, UniProt Q04771)
T1 sequence (Q04771 21-123 limits assumed): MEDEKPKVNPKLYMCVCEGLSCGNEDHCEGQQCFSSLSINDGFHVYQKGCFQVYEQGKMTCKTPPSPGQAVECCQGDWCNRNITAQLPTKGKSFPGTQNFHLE

B1: BMP-7: bone morphogenetic protein-7; recombinant human BMP7, positive control (protein)
chain: STGSKQRSQNRSKTPKNQEALRMANVAENSSSDQRQACKKHELYVSFRDLGWQDWIIAPEGYAAYYCEGECAFPLNSYMNATNHAIVQTLVHFINPETVPKPCCAPTQLNAISVLYFDDSSNVILKKYRNMVVRACGCH

Legend:
Alk-3 = biological target: T2, Alk-3 (Homo sapiens, UniProt P36894); test: Radio-ligand (125I-BMP7) receptor binding assay, Alk-3 ECD
T2 construct: Highly purified extra-cellular domain (ECD) of Alk-3 or Alk-6 (expressed as a fusion protein with Fc domain) served as a receptor
Description: FIG. 45A-FIG. 45G Pharmacokinetics of THR-123. FIG. 45A. BMP7 structure figure with the residue weights resulting from the analysis mapped on to it. FIG. 45B, FIG. 45C. Radio-ligand receptor binding assays specific for individual type I receptors, Alk-3 (FIG. 45B) and Alk-6 (FIG. 45C). Highly purified extra-cellular domain (ECD) of Alk-3 or Alk-6 (expressed as a fusion protein with Fc domain) served as a receptor. In each assay purified receptor was immobilized on each well and peptide analog or unlabeled BMP7 was added, followed by ^125I-labeled BMP7. Radiolabeled BMP7 complex was counted in an auto-gamma counter. Results were expressed as the mean±s.e.m. […] Concentration of THR-123 in systemic circulation of Wistar rats following iv injection of THR-123 (^125I-Tyr) via the tail vein determined by total radioactivity measurement. […] Six hours after intravenous administration of ^125I labeled-THR-123 in rats at a dose of 6.25 mg/kg-body weight, tissues were harvested and analyzed by automatic gamma well counter. […] Radioactivity of orally administrated ^125I labeled-THR-123 at a dose of 5 mg/kg body weight was localized in the kidney between 1 and 6 hours after administration and peaked at around 3 hours.
First, specific affinity of the extra cellular domains (ECD) of the several type I receptors of BMPs to THR-123 was analyzed. […]

ALK2 = biological target: T1, ALK2; test: BMP type I receptor binding, ALK2 ECD
Procedure: FIG. 31 provides a table indicating a comparison between THR-123 (SEQ ID NO: 1) and BMP-7 for binding to Type I and Type II BMP receptors. Like BMP-7, THR-123 binds to both ALK2 and ALK3 (type I) and BMPR-II (type II) BMP receptors. However, BMP-7, but not THR-123 binds to ALK6 (type I) receptor.
First, specific affinity of the extra cellular domains (ECD) of the several type I receptors of BMPs to THR-123 was analyzed. Binding of cold BMP7 to immobilized receptor ECDs was determined by competition with ^125I-labeled BMP7 and analyzed by Scatchard analysis to determine effective dissociation constants of BMP7 for each of the receptor ECDs. To obtain an estimate of the effective dissociation constant of THR-123 for a particular receptor ECD, the dissociation constant for cold BMP7 was multiplied by the ratio of the ED50 of THR-123 to the ED50 for cold BMP7.

NP-1 cells [1] = test: Hypoxia-induced apoptosis in NP-1 cells (Annexin V); assay type: cell-based; settings: 2.5% O2 24 h; BMP-7 1 μg/ml, THR-123 10 μM
Procedure: FIG. 49A-FIG. 49D THR-123 inhibits Hypoxia-induced apoptosis in NP-1 cells. NP-1 cells are incubated with hypoxia (2.5% O2) for 24 h in the presence of indicated molecules. Apoptosis was analyzed by Annexin V labeling (Roche). Representative merged picture (Green: Annexin V and bright field image) of cells treated with hypoxia only (FIG. 49A), hypoxia+BMP-7 (1 μg/ml) FIG. 49(B), hypoxia+THR-123 (10 μM) (FIG. 49C) and hypoxia+ctrl peptide (FIG. 49D).

HK-2 cells = test: TNF-α-induced inflammatory cytokine production in HK-2 cells (ELISA); assay type: cell-based, human; settings: HK-2 cells
Procedure: FIG. 37 provides a bar graph showing a comparison of the effects of THR-123 (or “THR-1405”) and the specific inhibitor SB 203580 on the level of TNF-α-induced IL-6 production, an inflammatory marker, in human renal tubule epithelial cells (HK-2).
FIG. 47A-FIG. 47C Anti-inflammatory activity of THR-123. PTEC-derived HK-2 (HK-2) cells were culture on 24-well plate (30,000 cells/well). Cells are exposed to K-SFM medium alone or TNF-α (5 ng/ml). Twenty hours after TNF-α incubation, cells are washed twice by pre-warmed culture media and subsequently cells are incubated with various concentration of THR-123 or BMP7 for 60 hours. At the end of incubation, culture medias are harvested and ELISA analysis are performed. FIG. 47A: IL-6, FIG. 47B: IL-8 and FIG. 47C: ICAM-1 results are shown. Analyze are performed in triplicates and data are shown as mean±s.e.m. in the graph.
Preliminary screening for optimization was based on anti-inflammatory efficacy in an in vitro cell-based assay using a human renal tubular epithelial cell line (HK-2). The assay tested the ability of compounds to reverse the increase in production of cytokine IL-6 that resulted from stimulation of the cells with tumor necrosis factor (TNF)-α. Sequence-activity analysis was carried out using the SVA program. After six optimization cycles, THR-123 (FIG. 2A) emerged as the lead compound, which was further evaluated in other relevant anti-fibrosis assays (vide infra).
Human proximal tubular epithelial cells-derived HK-2 cells were culture on 24-well plate (30,000 cells/well). Cells are exposed to K-SFM medium alone or […] (5 ng/ml). Twenty hours after TNF-α incubation, cells are washed twice by pre-warmed culture media and subsequently cells are incubated with various concentration of THR-123 or BMP7 for 60 hours. At the end of incubation, culture medias are harvested and ELISA analysis for IL-6, IL-8 and ICAM-1 are performed.

NP-1 cells [2] = test: TGF-β-induced apoptosis in NP-1 cells (Annexin V); assay type: cell-based; settings: TGF-β 3 ng/ml 24 h; BMP-7 1 μg/ml, THR-123 10 μM
Procedure: FIG. 48A-FIG. 48D THR-123 inhibits TGF-β-induced apoptosis in NP-1 cells. NP-1 cells are incubated with TGF-β (3 ng/ml) for 24 h in the presence of indicated molecules. Apoptosis was analyzed by Annexin V labeling (Roche). Representative merged picture (Green: Annexin V and bright field image) of cells treated with TGF-β only (FIG. 48A), TGF-β+BMP-7 (1 μg/ml) (FIG. 48B), TGF-β+THR-123 (10 μM) (FIG. 48C) and TGF-β+ctrl peptide (FIG. 48D).

T2 sequence (P36894 24-152 limits assumed, species assumed): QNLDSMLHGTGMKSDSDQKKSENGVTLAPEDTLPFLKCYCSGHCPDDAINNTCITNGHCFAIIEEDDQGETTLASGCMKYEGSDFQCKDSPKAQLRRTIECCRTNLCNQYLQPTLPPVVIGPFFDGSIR

Row | Molecule | binding to ALK3 (competition with 125I-BMP7) (Alk-3; listed as THR-123) | binding to ALK2 (ALK2; listed as THR-123) | hypoxia-induced apoptosis (NP-1 cells [1]) | TNF-α-induced ICAM-1 production (HK-2 cells) | TNF-α-induced IL-8 production (HK-2 cells) | TNF-α-induced IL-6 production (HK-2 cells; listed as THR-123) | TGF-β-induced apoptosis (NP-1 cells [2]) | binding to ALK3 (competition with 125I-BMP7) (Alk-3) | binding to ALK2 (ALK2) | TNF-α-induced IL-6 production (HK-2 cells)
1 | (H)-CYFDDSSNVLCKKYRS-(OH) (H-CYFDDSSNVLCKKYRS-OH; disulfide 1-11; SMILES CC(C)C[C@@H]1NC(=O)[C@H](C(C)C)NC(=O)[C@H](CC(N)=O)NC(=O)[C@H](CO)NC(=O)[C@H](CO)NC(=O)[C@H](CC(=O)O)NC(=O)[C@H](CC(=O)O)NC(=O)[C@H](Cc2ccccc2)NC(=O)[C@H](Cc2ccc(O)cc2)NC(=O)[C@@H](N)CSSC[C@@H](C(=O)N[C@@H](CCCCN)C(=O)N[C@@H](CCCCN)C(=O)N[C@@H](Cc2ccc(O)cc2)C(=O)N[C@@H](CCCNC(=N)N)C(=O)N[C@@H](CO)C(=O)O)NC1=O) [SEQ ID NO: 1] | competes with BMP7; also recorded: binds | to a small extent; also recorded: binds | decreased apoptosis | inhibits | inhibits | inhibited TNF-α induced IL-6 production in dose dependent manner; also recorded: significantly reduced | decreased apoptosis | – | – | –
2 | B1 | – | – | decreased apoptosis | – | – | – | decreased apoptosis | binds | binds | inhibited TNF-α induced IL-6 production in dose dependent manner
